# From patent US20140134180A1 (E R SQUIBB AND SONS L L C, published 2014)
# T1: human O8E, full length, on cells (human, UniProt Q7Z7D3 25-282)
# T1 construct: also called B7H4; B7S1
# T1 sequence: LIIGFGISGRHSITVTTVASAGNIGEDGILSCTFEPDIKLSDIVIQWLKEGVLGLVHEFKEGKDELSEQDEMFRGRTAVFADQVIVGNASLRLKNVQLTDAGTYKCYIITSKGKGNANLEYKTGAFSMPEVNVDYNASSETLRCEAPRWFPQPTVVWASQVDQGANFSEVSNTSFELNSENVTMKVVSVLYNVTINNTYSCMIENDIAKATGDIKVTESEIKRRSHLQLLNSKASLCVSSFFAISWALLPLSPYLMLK
# B1: 12E1 human monoclonal antibody (antibody, V domains shown)
# VH: EVQLVESGGGLVQPGRSLRLSCVASGFTFDDYAMHWVRQAPGKGLEWVSGISWNSGSIGYADSVKGRFTISRDNAKNSLYLQMNSLRAEDTALYYCTKALYGSGSSDFYYYGMDVWGQGTTVAVSS
# VL: EIVLTQSPATLSLSPGERATLSCRASQSVSSYLAWYQQKPGQAPRLLIYDASNRATGIPARFSGSGSGTDFTLTISSLEPEDFAVYYCQQRRTFGQGTKVEIK
# notes: Human IgG from a hybridoma of mice carrying a human kappa transgene; also called 12E1.G9
# B2: 2A7 human monoclonal antibody (antibody, V domains shown)
# VH: EVQLVESGGGLIQPGGSLRLSCAASGFTVSSNYMNWVRQAPGKGLEWVSVIYGSGRTYYADSVKGRVTISRDNSKNTLYLQMNSLRAEDTAVYYCARDTYAMDVWGQGTTVTVSS
# VL: not shown
# notes: Human IgG from a hybridoma of mice carrying a human kappa transgene; Fitcylated for immunohistochemistry; also called 2A7.C11; 2A7/C11
# B3: 1G11 human monoclonal antibody (antibody, V domains shown)
# VH: QVQLQQWGAGLLKPSETLSLTCAVYGGSFSDYFWTWIRQPPGKGLEWIGEINHSGTTNYNPSLKSRVTISADTSKNQFSLRLSSVTAADTAVYYCARLSSWSNWAFEYWGQGTLVTVSS
# VL: EIVLTQFPGTLSLSPGERATLSCRASQSVSSTYLAWYQQKPGQAPRVLIYGASRRATGIPDRFSGSGSGTDFTLTISRLEPEDFAVYYCQQYGSSPLTFGGGTKVEIK
# notes: Human IgG from a hybridoma of mice carrying a human kappa transgene; also called 1G11.H11-FITC; 1G11.H1
# B4: 13D12 human monoclonal antibody (antibody, V domains shown)
# VH: QVQLQQWGAGLLKPSETLSLTCAVYGGSFSGYYWSWIRQPPGKGLEWIGKINHSGSTNYNPSLKSRVTISVDTSKNQFSLKLNSVTAADTAVYYCARELRYFENYYYGMDVWGQGTTVTVSS
# VL: not shown
# notes: Human IgG from a hybridoma of mice carrying a human kappa transgene; also called 13D12.G10
# Tests used:
# Penta-B7H4 = target: T2, Penta-B7H4 ( for this construct); experiment: ELISA: anti-mouse Fc coat, monoclonal anti-C9 (0.6 ug/ml), Penta-B7H4 titrated 4000 to 2.0 ng/ml, human antibody at 1 ug/ml; the value is a concentration of Penta-B7H4, not of antibody [panel B]
# T2 construct: also called Penta-O8E; Penta-B7H4-C9
# Procedure: An ELISA plate was coated with anti-mouse Fc, followed by monoclonal anti-C9 (0.6 ug/ml), then titrated Penta-B7H4 as indicated, then the human antibodies at 1 ug/ml.
# [1] = target: T1, human O8E, full length, on cells; experiment: titration of labelled antibody on O8E-transfected cells, sigmoidal dose response fit; bottom and top fixed for incomplete curve; qualitative ranking
# Procedure: (§1) HEK cells were transfected with full length O8E using standard techniques and grown in RPMI media containing 10% fetal bovine serum (FBS). […] Millipore plates (MAFB NOB) were coated with 1% nonfat dry milk in water and stored a 4° C. overnight. The plates were washed three times with 0.2 ml of binding buffer. Fifty microliters of buffer alone was added to the maximum binding wells (total binding). Twenty-five microliters of buffer alone was added to the control wells (non-specific binding). Varying concentration of ¹²⁵I-anti-O8E antibody was added to all wells in a volume of 25 μl. (In some cases FITC labeled antibodies were used for the titration since unlabeled material was not available, binding may be compromised in these instances.) Varying concentrations of unlabeled antibody at 100 fold excess was added in a volume of 25 μl to control wells and 25 μl of O8E transfected CHO cells (2×10⁶ cells/ml) in binding buffer were added to all wells. The plates were incubated for 2 hours at 200 RPM on a shaker at 4° C. At the completion of the incubation the Millipore plates were washed three times with 0.2 ml of cold wash buffer (24 mM Tris pH 7.2, 500 mM NaCl, 2.7 mM KCl, 2 mM Glucose, 1 mM CaCl₂, 1 mM MgCl₂, 0.1% BSA.). The filters were removed and counted in a gamma counter. […]
# [2] = target: T1, human O8E, full length, on cells; experiment: titration of labelled antibody on O8E-transfected cells, sigmoidal dose response fit; FITC-labelled antibody; qualitative ranking
# Procedure: as §1
# [3] = target: T1, human O8E, full length, on cells; experiment: titration of labelled antibody on O8E-transfected cells, sigmoidal dose response fit; qualitative ranking
# Procedure: as §1
binder,measurement,setting,value
B1,EC50 (read off the curve),Penta-B7H4,~0.05 µg/mL
same,EC50,[1],~19.8 nM
B2,EC50 (read off the curve),Penta-B7H4,~0.04 µg/mL
B3,EC50,[2],1.69 nM
B4,EC50,[3],0.746 nM
